Laboratory results published in the supplement of paper PMC12042874.
± gives the uncertainty stated by the source.

assay: amyloid nucleation score (Sup35N fusion, yeast selection) (log enrichment); library NNK2; higher = more nucleation; inactive = no reads after selection
Method in brief: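 In psi-negative yeast, Sup35N fusions carrying peptides of 20 random codons were induced with 100 μM copper sulfate for 24 hours. The cells then grew 7 days at 30°C on medium lacking adenine and uracil, and plasmid inserts from input and output were Illumina-sequenced, excluding sequences with under 100 input reads. Nucleation score is the DiMSum log enrichment of output over input reads, centred on the mode score of non-aggregating sequences.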

| Substance | amyloid nucleation score |
| --- | --- |
| SLPDRKIKWESGGP | 0.646 ± 0.33 |
| IKYLKCIVMCRFFVHWSSIV | -1.06 ± 0.76 |
| KGGSRLCNFRSATKLSGPLL | 0.597 ± 0.46 |
| GPLLVIWVRTLGRELG | 0.841 ± 0.26 |
| RSWIGERIIYSSMRYQCAYL | -1.42 ± 0.54 |
| YALWFVIWEVGRGFLVVISF | inactive |
| SSSLSWLS | -0.609 ± 0.76 |
| CFTGFRVIMVNICEWCVVVS | 3.9 ± 0.098 |
| VCYYMWWFVYKHRSWQSGSW | -0.639 ± 0.74 |
| FPIAVVKRALDLAVNGLESD | 0.021 ± 0.44 |
| NSNGEFIKGACHMVRLFGLQ | 0.098 ± 1 |
| FCMAISFQCVNTRGFMPTAG | 7.394 ± 0.071 |
| YFNSLTQISSFRKFSRPLHS | 0.033 ± 0.38 |
| GFLNLCRSTSRELMCEMYSA | -0.651 ± 1.1 |
| VQFPSVMFICRIARRRTY | 0.746 ± 0.67 |
| CKLIFYTYPDYIYILIVKSS | inactive |
| ICKRVVVLWHSKEPDALFVG | inactive |
| FVLMMDYEIIFLN | 4.52 ± 0.071 |
| EWVMKSWV | -0.578 ± 1.1 |
| YYMTRVSPFQSFIVIMGASQ | 1.89 ± 0.24 |
| NLLTPFRLRPKTHLDLYRSC | -0.196 ± 1.1 |
| IISGAFRCARNGY | 1.62 ± 0.3 |
| RIQWKDGYHVARRVFIGNTG | -0.449 ± 0.63 |
| RDSFQCSY | -0.939 ± 0.54 |
| VFTFVKERQSTWVVSFPQFL | 4.68 ± 0.066 |

| Substance | amyloid nucleation score |
| --- | --- |
| IQVMSDMFKCDVTNVMGRRG | 2.99 ± 0.094 |
| VRCGGVSFGSMWVLDSILVR | 0.652 ± 0.15 |
| RHRCSI | -0.059 ± 0.39 |
| KKLALKVVVSNCFKK | 5.991 ± 0.048 |
| CNPVAV | 0.8 ± 0.66 |
| GATGGLSVCELVRCSELNRG | 0.985 ± 0.37 |
| MVLLCIFQ | 8.273 ± 0.064 |
| GSLMHEFAH | -0.698 ± 0.78 |
| FFFKSSLLR | 0.241 ± 0.8 |
| IFCYPQCVGPRSLCVGGNME | -0.72 ± 0.39 |
| CVMLMCRGDV | 3.87 ± 0.091 |
| VTYFTILNHMCW | 6.602 ± 0.04 |
| LYVFPCHILDDRCFLCGGWF | -0.353 ± 0.38 |
| AVSFRFIGVYRGM | 3.95 ± 0.12 |
| YEGLF | inactive |
| LRSLINCYAKVICRTYRFVG | -0.885 ± 0.61 |
| QFWVPTLEAWSWTSAFPYMP | -0.536 ± 1.1 |
| VQLGVHV | 0.14 ± 0.4 |
| RIMPTLLKIPYLWYQSLSCD | -0.081 ± 0.22 |
| IESPLIEFTIDCW | -0.025 ± 0.79 |
| NISMTTWW | 4.71 ± 0.11 |
| SREYDCYLWRNLVWNCWMNW | 5.638 ± 0.048 |
| FMSIFDWSCVWFYLCKGTWD | -1.75 ± 0.54 |
| CFCLPSNSNI | 1.19 ± 0.09 |
| SSCRGIEWRFQTGNITQWLG | -0.165 ± 0.23 |

| Substance | amyloid nucleation score |
| --- | --- |
| DLSSALRAMRSYSHLSTVGI | inactive |
| SYILGILFVFYVCETKYLYL | 0.328 ± 0.25 |
| SVGSGPVSSLRRKHDRGDTP | 0.253 ± 0.35 |
| YKLAFQSYIDGLLIL | inactive |
| HWVCKIILRGHSSMYCSDGC | 3.35 ± 0.11 |
| NHMLL | -0.313 ± 0.76 |
| RPIKRV | 0.173 ± 0.2 |
| RWRIARMITPNLPELLSLYR | 2.93 ± 0.059 |
| FVLSMVLSIILLSLSHHLFG | 2.33 ± 0.2 |
| ASSYMRWVEARTRYLACAEN | 4.665 ± 0.046 |
| SVGPLLYATMSMAGDSVAGA | 0.004 ± 0.34 |
| LQMPVVF | -0.577 ± 0.26 |
| GWTKLFGVHDSGIGCPNGVL | inactive |
| YLLVLFGSGTYITPTLLRIN | -1.55 ± 0.49 |
| TSTCNRRVIWMHLEPGELCV | -0.375 ± 0.76 |
| NTAVSYFNHKSVAFFYFCDL | 4.94 ± 0.064 |
| ATCSPSVSRVLGLCSWECFR | -0.382 ± 0.76 |
| TYGTTELVLHRTEINMMRNQ | 3.25 ± 0.12 |
| YDHDLINRKITSGHKVYFIG | -0.586 ± 0.49 |
| LVRVGDFG | -0.267 ± 0.54 |
| KWYKVVNMALALISMWSQAW | -0.701 ± 0.63 |
| CSYVAGETSLERSHCILGWS | 0.161 ± 0.34 |
| YKGQCSILLGRVRWDFSSSS | -1.02 ± 0.78 |
| RCNQLIWTASDNWYYMWTTV | 1.8 ± 0.1 |
| HSPNCYKMSGRFLCD | -1.77 ± 0.54 |

| Substance | amyloid nucleation score |
| --- | --- |
| GFLFMVMRSQLRCVYINKY | 1.61 ± 0.15 |
| KMHLAQ | inactive |
| GTTVMGGILVLDGQALIGSM | 1.06 ± 0.28 |
| GTMLMGVE | 0.449 ± 0.8 |
| YFFSISWTCYFR | 3.27 ± 0.044 |
| YSHATFSPASNSYQKG | 0.146 ± 0.56 |
| PLDPHCVFPIDNTSMMRVV | 0.295 ± 0.32 |
| TYEIFLVPS | 0.41 ± 0.74 |
| ACKRGTFQWNACLSPGSCGR | 0.902 ± 0.36 |
| EWIIERRSL | -0.279 ± 0.63 |
| LSGSY | -0.305 ± 1.1 |
| CGYLRDTWWFFCVTLRNRGV | 1.12 ± 0.27 |
| LAVLGVVDNIV | 0.516 ± 0.4 |
| VFMTSLY | -1.06 ± 0.49 |
| RSLDQSIVNRVVVYFSGWCV | 3.62 ± 0.073 |
| SIWYLGGC | -0.02 ± 0.42 |
| VDLGLLKKTNFTQLYFGDC | 0.317 ± 0.16 |
| ALKSCVLNDKVRRFLAWRLG | -0.183 ± 0.54 |
| YMTVSRVHISRVCCVYTLNV | 5.44 ± 0.064 |
| RSLGVSAL | inactive |
| AKYRLVVLSEFYSLTPRVLD | -0.107 ± 1 |
| HIDEYKWT | 0.546 ± 0.8 |
| LFVIWNTCVNYFLDVLSGHN | 3.86 ± 0.12 |
| FENDFMRVSCDGSRGILCVL | 2.48 ± 0.11 |
| TKLLP | -0.149 ± 0.55 |

| Substance | amyloid nucleation score |
| --- | --- |
| RSSADAPVY | -0.864 ± 1.1 |
| YTVNCCIRANANGAFFSKVQ | 3.69 ± 0.053 |
| LWVSSSLSL | -0.74 ± 0.45 |
| CLGFGRSSPTGYNTCVVRNY | -0.493 ± 1.1 |
| VTCCVTSEWVGFLDWWSDRQ | 10.13 ± 0.043 |
| DQLVQGYGNTGWQLGYRMAG | 5.35 ± 0.056 |
| ILFGIPN | -0.314 ± 0.24 |
| FIGVSGLRCRGVMCSCYASY | 1.53 ± 0.17 |
| VLDFLVSCADYSWSLNNCES | -0.91 ± 0.76 |
| LLSSFIALSWCWRWFKHSS | 4.972 ± 0.045 |
| FGYFYMKHLTPALMPYTGY | -0.441 ± 1.1 |
| FRIIYKWCLMPLMPGCGGM | inactive |
| FRSNYVKAFRYLYVGLVVNL | -0.505 ± 1.1 |
| ISGTHLCSRFYIRYALCGLK | 4.66 ± 0.079 |
| ICGCCARIHNYNISVSACLT | 4.3 ± 0.052 |
| SYVNKWAECLSCTTEYTMSK | inactive |
| ALMVEDRH | 0.382 ± 0.8 |
| YTRWWLWWGFNNCWRYWSEK | -0.96 ± 0.55 |
| TVPGNEEV | 0.028 ± 0.53 |
| YGFCAFTHSC | -0.554 ± 1 |
| MSPYL | 0.479 ± 0.8 |
| LMLVVQALNHAYLLQVMSCT | 0.805 ± 0.67 |
| DFGRWSTSGSVPCSGATCAV | 2.43 ± 0.2 |
| FGLLLWYLCFSHIG | inactive |
| DGNWL | -0.385 ± 0.76 |

| Substance | amyloid nucleation score |
| --- | --- |
| WCLMVGFMFMCRYDGNQSDG | 2.98 ± 0.051 |
| FNTRMSIKSGNMTWSNYYWF | 5.771 ± 0.053 |
| GNTGCGVRACSGVCGKMDLV | 0.8 ± 0.27 |
| LPNRVNDRDAEYHVMLLCK | 0.095 ± 0.27 |
| FDLCTLFYNSRFHIIRYWVT | inactive |
| HIIISKYHINYCRMMNYSGK | 8.137 ± 0.056 |
| VSAGWSTST | 3 ± 0.09 |
| VLYGVCIVCCSWSMTSC | 0.959 ± 0.6 |
| DLVVYLSPVGGTGRFYEVGA | 3.92 ± 0.062 |
| PTRIFSCSRSGGWYYL | -0.831 ± 0.32 |
| CAGPPLLAKVGWIIMYSLVV | 0.258 ± 0.55 |
| VSLLNGYGAHSDMSAVGRRR | 0.649 ± 0.47 |
| SGGLLKRWYRVDLGVVRYLY | inactive |
| WLPKVWLRVRWFNEEKRDGG | -0.123 ± 0.54 |
| SVYLVG | -0.271 ± 0.65 |
| MVFAPIVYEIKRDIKMLFGA | 5.947 ± 0.029 |
| RAMVPHHNADGCGLLQDTQ | 1.14 ± 0.38 |
| KLANV | inactive |
| ISSDLWVHSFNTILSENGVC | -0.674 ± 0.63 |
| SYWSLRLFCFQLCLDHYRNG | 2.74 ± 0.21 |
| ATYINLVINSKSARLFLICG | 4.732 ± 0.036 |
| GMSYGESWIGTNLAGRVRAL | 1.29 ± 0.31 |
| YVFIYESPYSSRSCPNALVS | -0.011 ± 0.46 |
| ATNNPVMNFAGLAKECFAYM | -0.106 ± 0.79 |
| ECDYRTLSLNMVLNYCRKGG | 5.955 ± 0.046 |

| Substance | amyloid nucleation score |
| --- | --- |
| VWLCHSVNHIAISNE | 1.12 ± 0.45 |
| VLDTMYGTDIQRRTMGKANT | 0.391 ± 0.36 |
| LAYPMISVFYHELIIDLRSM | 3.92 ± 0.11 |
| TCIDEGEVVLDFFNVIKVLC | inactive |
| MSPWRDRSRFKIYDGPTWRM | 0.728 ± 0.8 |
| VMHFDLQICDRVHSRKSAPR | 8.523 ± 0.038 |
| CLSLSLVMSVGVLKSISQYS | -0.017 ± 1 |
| AYHDYLSRGGTHVVVCYYLS | inactive |
| RLSLGLYINALRC | 1.01 ± 0.51 |
| VFVIWCFVIICVSLLSVVDR | -0.795 ± 0.49 |
| QGYAYMCTGSFFFSLLQVLS | 3.79 ± 0.1 |
| AKFTL | -0.253 ± 0.3 |
| VIKMVMEVPVTGFPRSRNSF | -0.369 ± 1.1 |
| KPFFEKFVSTLGLWFEQLKS | -0.574 ± 0.42 |
| GAWTAMSGVLMVMLWLWSVC | 1.83 ± 0.23 |
| GVGHFFLIQINKMCPHMRMA | 2.98 ± 0.13 |
| FGFSEGEMVPSFI | -1.21 ± 1 |
| NRFQYGCNSGSMTVWGALWF | 0.706 ± 0.81 |
| VLHKNTKMANTWVHNPTEVE | -0.328 ± 0.27 |
| NSDISARCGSCVYLWYVSDD | 8.712 ± 0.048 |
| GAGPGSLAKRHYWDSSSQYE | -0.024 ± 0.31 |
| AFSNSM | 0.988 ± 0.52 |
